Experimental data: US20090136495A1 (Eli Lilly, published 2009)
Numbering of substitutions follows the chain as printed. Where no end group is shown, it is not given here.

B1: Mab 3.23 (antibody, human IgG4 S228P, kappa, V domains shown)
VH: QVQLVQSGAEVKKPGSSVKVSCKASGYTFLIYPISWVRQAPGQGLEWMGNFHPYLGVTNYVEKFKGRVTITADKSTSTAYMELSSLRSEDTAVYYCARGGTGSFDYWGQGTTVTVSS
VL: DIQMTQSPSSLSASVGDRVTITCSASSRVSSTYLFWYQQKPGKAPKLLIYRTSPLASGVPSRFSGSGSGTDFTLTISSLQPEDFATYYCQQWSGYPFVFGGGTKVEIKR
B2: Mab 3.12 (antibody, human IgG4 S228P, kappa, V domains shown)
VH: B1 VH with V61L
VL: B1 VL with P54T, A56T
B3: Mab 3.8 (antibody, human IgG4, V domains shown)
VH: B1 VH with V61L
VL: B1 VL with V98T
notes: Human engineered Mab, human IgG4
B4: Mab Hu22 (antibody, human IgG4 S228P, kappa, V domains shown)
VH: B1 VH with L30T, V57D, V61N
VL: B1 VL with P54T, V98T
B5: Mab L1.5 (antibody, human IgG4 S228P, kappa, V domains shown)
VH: B1 VH with V61L
VL: B1 VL with S26E, V98T
B6: Fab 3.12 (Fab, V domains shown)
VH: B1 VH with V61L
VL: DIQMTQSPSSLSASVGDRVTITCSASSRVSSTYLFWYQQKPGKAPKLLIYRTSTLTSGVPSRFSGSGSGTDFTLTISSLQPEDFATYYCQQWSGYPFVFGGGTKVEIK
notes: Fab with human kappa, from E. coli periplasm; frameworks O2 and VH1-69
B7: Fab 3.23 (Fab, V domains shown)
VH: B1 VH
VL: B6 VL with T54P, T56A
notes: as for B6
B8: Fab Hu22 (Fab, V domains shown)
VH: B1 VH with L30T, V57D, V61N
VL: B6 VL with T56A, V98T
notes: as for B6
B9: Fab 1.7 (Fab, V domains shown)
VH: B1 VH with L30T, V57D, N59R
VL: B6 VL with T56V
notes: Fab with human kappa

Molecular target: T1, human hepcidin-25 (human, not fully specified)
T1 construct: also called human mature hepcidin
T1 peptide: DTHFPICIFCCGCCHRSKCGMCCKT
Experiment: SPR (BIAcore), Mab captured on protein A, human hepcidin-25 injected, 25 C
Method: (§1) Except as noted, all reagents and materials are purchased from BIAcore® AB (Upsala, Sweden). All measurements are performed at 25° C. Samples are dissolved in HBS-EP buffer (150 mM sodium chloride, 3 mM EDTA, 0.05% (w/v) surfactant P-20, and 10 mM HEPES, pH 7.4). To capture Fabs with human kappa, goat-anti-human kappa is immobilized on flow cells 1 to 4 of a CM5 sensor chip at a level of 5000-10000 response units (Rus) using an amine coupling kit. To capture Mabs with mouse IgG1, goat-anti-mouse Fc gamma is immobilized on flow cells 1 to 4 of a CM5 sensor chip at a level of 5000-10000 Rus using an amine coupling kit. To capture antibodies with human IgG4, protein A is immobilized on flow cells 1 to 4 of a CM4 sensor chip at a level of 400-700 Rus using an amine coupling kit. Fabs prepared from E. coli periplasma and Mabs prepared from mammalian cell culture are evaluated using multiple analytical cycles. […] The measurements are obtained at 25° C. and the association and dissociation rates for each cycle are evaluated using a “1:1 with mass transfer” binding model in the BLAevaluation software.

Row | Binder | Kd | koff | kon
1 | B1 | 0.0994 nM | 0.000659 s⁻¹ | 6.2e+06 M⁻¹ s⁻¹
2 | B2 | 0.0599 nM | 0.00022 s⁻¹ | 3.68e+06 M⁻¹ s⁻¹
3 | B3 | 0.105 nM | 0.000768 s⁻¹ | 5.58e+06 M⁻¹ s⁻¹
4 | B4 | 0.764 nM | 0.00864 s⁻¹ | 1.09e+07 M⁻¹ s⁻¹
5 | B5 | 0.0342 nM | 0.000182 s⁻¹ | 5.31e+06 M⁻¹ s⁻¹

Molecular target: T1, human hepcidin-25
Experiment: SPR (BIAcore), Fab captured on goat anti-human kappa, human hepcidin-25 injected, 25 C
Method: as §1

Row | Binder | Kd | koff | kon
6 | B6 | 0.0883 nM | 0.000347 s⁻¹ | 3.94e+06 M⁻¹ s⁻¹
7 | B7 | 0.0788 nM | 0.000278 s⁻¹ | 3.53e+06 M⁻¹ s⁻¹
8 | B8 | 0.647 nM | 0.00456 s⁻¹ | 7.05e+06 M⁻¹ s⁻¹
9 | B9 | 0.422 nM | 0.00148 s⁻¹ | 3.8e+06 M⁻¹ s⁻¹

Molecular target: T2, cynomolgus monkey hepcidin-25 (cynomolgus monkey, UniProt A7XEI3 60-84, not fully specified)
T2 construct: mature; also called mature cynomolgous monkey hepcidin
T2 peptide: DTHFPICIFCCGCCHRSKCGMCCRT
Experiment: SPR (BIAcore), captured Mab, cynomolgus monkey hepcidin-25 injected, 25 C
Method: as §1

Row | Binder | Kd | koff | kon
10 | B1 | 0.0888 nM | 0.000577 s⁻¹ | 6.51e+06 M⁻¹ s⁻¹
11 | B3 | 0.00933 nM | 0.00066 s⁻¹ | 7.07e+07 M⁻¹ s⁻¹
12 | B4 | 0.986 nM | 0.00816 s⁻¹ | 8.13e+06 M⁻¹ s⁻¹

Molecular target: T2, cynomolgus monkey hepcidin-25
Experiment: SPR (BIAcore), 25 C
Method: as §1

Row | Binder | fold lower KD than for human hepcidin-25
13 | B3 | > 10 fold

Molecular target: T3, rat hepcidin-25 (rat, UniProt Q99MH3 60-84)
T3 construct: mature
T3 peptide (looked up): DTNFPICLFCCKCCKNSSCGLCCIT
Experiment: SPR (BIAcore), 25 C
Method: as §1

Row | Binder | binding result
14 | B1 | no binding
15 | B4 | no binding

Molecular target: T4, mouse hepcidin-25 (mouse, UniProt Q9EQ21 59-83)
T4 construct: mature
T4 peptide (looked up): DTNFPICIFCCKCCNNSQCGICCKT
Experiment: SPR (BIAcore), captured Mab, mouse hepcidin-25 injected, 25 C
Method: as §1

Row | Binder | Kd | koff | kon
16 | B1 | 50.1 nM | 0.192 s⁻¹ | 3.83e+06 M⁻¹ s⁻¹
17 | B3 | 34.6 nM | 0.124 s⁻¹ | 3.57e+06 M⁻¹ s⁻¹
18 | B4 | 77.6 nM | 0.126 s⁻¹ | 1.62e+06 M⁻¹ s⁻¹

molecular target: ferroportin C-terminally fused with green fluorescent protein (human), Q9NP59; experiment: cell-based or functional assay
Sequence (Q9NP59 whole entry, the tested form may be a part): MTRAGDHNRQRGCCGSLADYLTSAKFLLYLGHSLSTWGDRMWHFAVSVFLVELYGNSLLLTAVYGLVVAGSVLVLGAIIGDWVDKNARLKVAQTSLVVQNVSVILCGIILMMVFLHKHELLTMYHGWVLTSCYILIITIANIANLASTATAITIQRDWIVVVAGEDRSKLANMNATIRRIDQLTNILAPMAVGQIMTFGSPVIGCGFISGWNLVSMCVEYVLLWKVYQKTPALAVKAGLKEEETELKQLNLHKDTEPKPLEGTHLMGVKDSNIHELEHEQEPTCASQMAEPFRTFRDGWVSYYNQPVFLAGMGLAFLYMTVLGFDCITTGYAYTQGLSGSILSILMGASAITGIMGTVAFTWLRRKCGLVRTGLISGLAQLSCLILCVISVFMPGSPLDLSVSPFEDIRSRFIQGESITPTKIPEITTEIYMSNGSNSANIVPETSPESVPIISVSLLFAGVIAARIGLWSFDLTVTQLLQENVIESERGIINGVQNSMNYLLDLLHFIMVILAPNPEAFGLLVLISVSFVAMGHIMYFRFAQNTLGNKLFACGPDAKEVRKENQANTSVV

Row | Binder | hepcidin-induced internalization and degradation of ferroportin (FPN-GFP fluorescence in HEK 293 cells), concentration of maximal effect
19 | DTHFPICIFCCGCCHRSKCGMCCKT (ends and bridges not checked; cysteine pairing not given here) [human hepcidin-25] | 0.5 µM
